Holding throughout (assay): SPR
In assay [1] the target is T1, FcγRI (CD64) extracellular domain (UniProt P12314 16-292).
T1 chain: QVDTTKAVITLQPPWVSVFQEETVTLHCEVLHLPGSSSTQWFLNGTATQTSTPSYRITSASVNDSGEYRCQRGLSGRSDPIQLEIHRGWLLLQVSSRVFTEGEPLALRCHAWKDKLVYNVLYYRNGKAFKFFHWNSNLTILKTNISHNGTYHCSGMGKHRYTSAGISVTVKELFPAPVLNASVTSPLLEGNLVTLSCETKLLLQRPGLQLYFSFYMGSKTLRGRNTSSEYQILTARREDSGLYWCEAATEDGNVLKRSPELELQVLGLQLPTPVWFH

For assay [2], the target named is FcγRIIIa-158V.
The target in assay [3] is FcγRIIa-131R.
Assay [4] concerns the target FcγRIIb.
Assay [5] concerns the target FcγRIIa-131H.
Assay [6] addresses FcγRIIIa-158F.

A value given as a limit tells only on which side of the number the result lay.

B1: LY3454738 IgG4 S228P (ucenprubart) (antibody)
chain 1: QVQLVQSGAEVKKPGASVKVSCKASGFSFSSGYYMAWVRQAPGQGLEWMGLIGVGSGSLWYAQKFQGRVTMTRDTSTSTVYMELSSLRSEDTAVYYCARHFALSDPFNLWGQGTLVTVSS
chain 2: EIVLTQSPDFQSVTPKEKVTITCQASESIDSYLLWYQQKPDQSPKLLIKQASTLASGVPSRFSGSGSGTDFTLTINSLEAEDAATYYCQNYYDISSNDFGGGTKVEIK
As for B1, the Kd in assay [1] is 0.474 nM; in assay [2] it was 5000 nM; in assay [3], 1800 nM; in assay [4], 1900 nM; in assay [5], 4400 nM; in assay [6], greater than 10000 nM.

These data come from publication PMC12046042 (2025).
